B1: ch48-E11-H7-B5 (antibody, V domains shown)
VH: EVQLVESGGGLVKPGGSLKLSCAASGFTFSSYAMSWVRQTPEKRLEWVASITIGDDTYYPDSVKGRFTISRDHAKNILYLQVSSLRSEDTAMYSCARGVNSYGSSYRYFDVWGAGTTVTVSS
VL: DIVMTQSHKFMSTSVGDRVSITCKASQDVSTAVAWYQQKPGQSPKLLIYWASTRHTGVPDRFTGSGSGTDYTLTISSVQAEDLALYYCQQHYSIPFTFGAGTKLEK
B2: NGM831 (antibody, V domains shown)
VH: EVQLQQSGPEVKPGASVKISCKASGYTFTDYNMDWVKQSHGKSEWIGYIYPSNGGTGYNQKFKSKATLTVDKSSNTAYMELHSLTSEDSAVYYCARVPYYDYLYYYAMDYWGQGTSVTVSS
VL: QIVLSQSPAILSASPGEKVTMACRASSSVSFMHWYQQKPGSSPQPWIYATSNLASGVPARFSGSGSGTSYSLTISRVEAEDAATYYCQQWSTNPYMYTFGGGTKLEIK

Experiments:
[1] = biological target: human LILRA6 protein (human) (UniProt Q6PI73); test: ELISA, LILRA6 protein
human LILRB4 (human) [2] = biological target: human LILRB4 (human) (UniProt Q8NHJ6); test: cell-based or functional assay
human LILRB4 (human) [3] = biological target: human LILRB4 (human) (UniProt Q8NHJ6); test: FACS, 293F-hLILRB4 cells
[4] = biological target: cynomolgus (Macaca fascicularis) LILRB4 (cynomolgus (Macaca fascicularis)); test: FACS, CHO-S-cynoLILRB4 cells

human LILRB4 (human), sequence (Q8NHJ6 22-448): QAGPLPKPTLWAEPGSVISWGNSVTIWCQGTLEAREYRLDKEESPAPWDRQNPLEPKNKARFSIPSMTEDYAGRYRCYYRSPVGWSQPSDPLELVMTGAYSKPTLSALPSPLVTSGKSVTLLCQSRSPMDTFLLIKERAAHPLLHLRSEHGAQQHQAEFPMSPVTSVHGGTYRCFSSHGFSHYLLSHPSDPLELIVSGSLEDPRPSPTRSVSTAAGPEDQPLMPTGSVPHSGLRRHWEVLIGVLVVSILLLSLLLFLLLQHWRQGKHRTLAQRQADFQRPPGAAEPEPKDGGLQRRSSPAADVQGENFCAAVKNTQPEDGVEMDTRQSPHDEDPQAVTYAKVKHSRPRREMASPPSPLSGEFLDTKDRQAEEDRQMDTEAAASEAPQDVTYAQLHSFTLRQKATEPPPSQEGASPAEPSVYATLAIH
human LILRA6 protein (human), sequence (Q6PI73 24-447 limits assumed): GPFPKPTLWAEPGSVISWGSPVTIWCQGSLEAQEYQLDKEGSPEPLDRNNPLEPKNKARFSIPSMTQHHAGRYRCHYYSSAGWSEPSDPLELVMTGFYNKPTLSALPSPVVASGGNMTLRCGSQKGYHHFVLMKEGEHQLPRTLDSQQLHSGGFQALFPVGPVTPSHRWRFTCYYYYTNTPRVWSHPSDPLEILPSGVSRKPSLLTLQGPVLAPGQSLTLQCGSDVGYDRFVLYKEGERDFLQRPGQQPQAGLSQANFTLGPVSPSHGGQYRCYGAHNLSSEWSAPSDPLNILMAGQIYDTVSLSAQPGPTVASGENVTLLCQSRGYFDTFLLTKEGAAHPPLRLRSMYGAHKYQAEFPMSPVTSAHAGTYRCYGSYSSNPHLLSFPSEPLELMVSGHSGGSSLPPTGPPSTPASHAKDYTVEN

| Binder | ELISA(OD450) [1] [OD450] | ADCP (%) at 133.3 nM, macrophages and MV-4-11 cells (human LILRB4 (human) [2]) [%] | EC50 (nM), ADCC on THP-1 cells (human LILRB4 (human) [2]) [nM] | FcγR stimulation (TNF-α, pg/mL) (human LILRB4 (human) [2]) [pg/mL] | Fold change (Compared to isotype) (human LILRB4 (human) [2]) [fold] | Max cell cytotoxicity (%), ADCC on THP-1 cells (human LILRB4 (human) [2]) [%] | EC50 (human LILRB4 (human) [3]) [nM] | Max MFI (human LILRB4 (human) [3]) [MFI] | Max MFI [4] [MFI] |
| --- | --- | --- | --- | --- | --- | --- | --- | --- | --- |
| B1 | 0.302 | – | – | – | – | – | – | – | – |
| B2 | 1.32 | 6.37 | 488 | 261 | 8.26 | -6.89 | 4.39 | 30400 | 822 |

Reference: patent publication US20250361295A1
